± gives the uncertainty stated by the source.
B1: Homeobox protein cut-like 1, residues 548 to 629; numbered along this chain, P39880 (parent)
chain: GEEMDTAEIARQVKEQLIKHNIGQRIFGHYVLGLSQGSVSEILARPKPWNKLTVRGKEPFHKMKQFLSDEQNILALRSIQGR

Variants of: B1
Assay: abundance fitness (aPCA) (normalised: wild type 0, dead -1); higher = more abundant; growth selection in yeast, the domain comes from the species named
Settings: Homo sapiens

| Variant | abundance fitness |
| --- | --- |
| GEEMDTAEIARQVKEQLIKHNIGQRIFGHYVLGLSQGSVSEILARPKPWNQLTVRGKEPFHKMKQFLSDEQNILALRSIQGR [K51Q] | 0.122 ± 0.08 |
| GEEMDTAEIARQVKEQLIKHNIGQRIFGHYVLGLSQGSVSEILARPKPWNDLTVRGKEPFHKMKQFLSDEQNILALRSIQGR [K51D] | 0.054 ± 0.082 |
| GEEMDTAEIARQVKEQLIKHNIGQRIFGHYVLGLSQGSVSEILARPKPWNVLTVRGKEPFHKMKQFLSDEQNILALRSIQGR [K51V] | 0.053 ± 0.048 |
| GEEMDTAEIARQVKEQLIKHNIGQRIFGHYVLGLSQGSVSEILARPKPWNSLTVRGKEPFHKMKQFLSDEQNILALRSIQGR [K51S] | 0.006 ± 0.053 |
| GEEMDTAEIARQVKEQLIKHNIGQRIFGHYVLGLSQGSVSEILARPKPWNFLTVRGKEPFHKMKQFLSDEQNILALRSIQGR [K51F] | -0.098 ± 0.097 |
| GEEMDTAEIARQVKEQLIKHNIGQRIFGHYVLGLSQGSVSEILARPKPWNPLTVRGKEPFHKMKQFLSDEQNILALRSIQGR [K51P] | -0.912 ± 0.27 |
| GEEMDTAEIARQVKEQLIKHNIGQRIFGHYVLGLSQGSVSEILARPKPWNHLTVRGKEPFHKMKQFLSDEQNILALRSIQGR [K51H] | -0.075 ± 0.12 |
| GEEMDTAEIARQVKEQLIKHNIGQRIFGHYVLGLSQGSVSEILARPKPWNTLTVRGKEPFHKMKQFLSDEQNILALRSIQGR [K51T] | 0.011 ± 0.07 |
| GEEMDTAEIARQVKEQLIKHNIGQRIFGHYVLGLSQGSVSEILARPKPWNNLTVRGKEPFHKMKQFLSDEQNILALRSIQGR [K51N] | 0.012 ± 0.07 |
| GEEMDTAEIARQVKEQLIKHNIGQRIFGHYVLGLSQGSVSEILARPKPWNELTVRGKEPFHKMKQFLSDEQNILALRSIQGR [K51E] | 0.063 ± 0.063 |
| GEEMDTAEIARQVKEQLIKHNIGQRIFGHYVLGLSQGSVSEILARPKPWNGLTVRGKEPFHKMKQFLSDEQNILALRSIQGR [K51G] | -0.198 ± 0.05 |
| GEEMDTAEIARQVKEQLIKHNIGQRIFGHYVLGLSQGSVSEILARPKPWNWLTVRGKEPFHKMKQFLSDEQNILALRSIQGR [K51W] | -0.338 ± 0.079 |
| GEEMDTAEIARQVKEQLIKHNIGQRIFGHYVLGLSQGSVSEILARPKPWNMLTVRGKEPFHKMKQFLSDEQNILALRSIQGR [K51M] | -0.011 ± 0.066 |
| GEEMDTAEIARQVKEQLIKHNIGQRIFGHYVLGLSQGSVSEILARPWPWNKLTVRGKEPFHKMKQFLSDEQNILALRSIQGR [K47W] | -0.329 ± 0.033 |
| GEEMDTAEIARQVKEQLIKHNIGQRIFGHYVLGLSQGSVSEILARPYPWNKLTVRGKEPFHKMKQFLSDEQNILALRSIQGR [K47Y] | -0.432 ± 0.082 |
| GEEMDTAEIARQVKEQLIKHNIGQRIFGHYVLGLSQGSVSEILARPVPWNKLTVRGKEPFHKMKQFLSDEQNILALRSIQGR [K47V] | -0.015 ± 0.028 |
| GEEMDTAEIARQVKEQLIKHNIGQRIFGHYVLGLSQGSVSEILARPTPWNKLTVRGKEPFHKMKQFLSDEQNILALRSIQGR [K47T] | -0.019 ± 0.033 |

| Variant | abundance fitness |
| --- | --- |
| GEEMDTAEIARQVKEQLIKHNIGQRIFGHYVLGLSQGSVSEILARPKGWNKLTVRGKEPFHKMKQFLSDEQNILALRSIQGR [P48G] | -0.539 ± 0.028 |
| GEEMDTAEIARQVKEQLIKHNIGQRIFGHYVLGLSQGSVSEILARPKRWNKLTVRGKEPFHKMKQFLSDEQNILALRSIQGR [P48R] | -0.475 ± 0.029 |
| GEEMDTAEIARQVKEQLIKHNIGQRIFGHYVLGLSQGSVSEILARPKFWNKLTVRGKEPFHKMKQFLSDEQNILALRSIQGR [P48F] | -0.513 ± 0.11 |
| GEEMDTAEIARQVKEQLIKHNIGQRIFGHYVLGLSQGSVSEILARPKYWNKLTVRGKEPFHKMKQFLSDEQNILALRSIQGR [P48Y] | -0.78 ± 0.12 |
| GEEMDTAEIARQVKEQLIKHNIGQRIFGHYVLGLSQGSVSEILARPKDWNKLTVRGKEPFHKMKQFLSDEQNILALRSIQGR [P48D] | -0.267 ± 0.058 |
| GEEMDTAEIARQVKEQLIKHNIGQRIFGHYVLGLSQGSVSEILARPKIWNKLTVRGKEPFHKMKQFLSDEQNILALRSIQGR [P48I] | -0.438 ± 0.1 |
| GEEMDTAEIARQVKEQLIKHNIGQRIFGHYVLGLSQGSVSEILARPKEWNKLTVRGKEPFHKMKQFLSDEQNILALRSIQGR [P48E] | -0.126 ± 0.031 |
| GEEMDTAEIARQVKEQLIKHNIGQRIFGHYVLGLSQGSVSEILARPKKWNKLTVRGKEPFHKMKQFLSDEQNILALRSIQGR [P48K] | -0.452 ± 0.049 |
| GEEMDTAEIARQVKEQLIKHNIGQRIFGHYVLGLSQGSVSEILARPKMWNKLTVRGKEPFHKMKQFLSDEQNILALRSIQGR [P48M] | -0.27 ± 0.043 |
| GEEMDTAEIARQVKEQLIKHNIGQRIFGHYVLGLSQGSVSEILARPKHWNKLTVRGKEPFHKMKQFLSDEQNILALRSIQGR [P48H] | -0.16 ± 0.061 |
| GEEMDTAEIARQVKEQLIKHNIGQRIFGHYVLGLSQGSVSEILARPKAWNKLTVRGKEPFHKMKQFLSDEQNILALRSIQGR [P48A] | -0.119 ± 0.028 |
| GEEMDTAEIARQVKEQLIKHNIGQRIFGHYVLGLSQGSVSEILARPKWWNKLTVRGKEPFHKMKQFLSDEQNILALRSIQGR [P48W] | -0.325 ± 0.033 |
| GEEMDTAEIARQVKEQLIKHNIGQRIFGHYVLGLSQGSVSEILARPKCWNKLTVRGKEPFHKMKQFLSDEQNILALRSIQGR [P48C] | -0.268 ± 0.055 |
| GEEMDTAEIARQVKEQLIKHNIGQRIFGHYVLGLSQGSVSEILARPKNWNKLTVRGKEPFHKMKQFLSDEQNILALRSIQGR [P48N] | -0.446 ± 0.083 |
| GEEMDTAEIARQVKEQLIKHNIGQRIFGHYVLGLSQGSVSEILARPKVWNKLTVRGKEPFHKMKQFLSDEQNILALRSIQGR [P48V] | -0.374 ± 0.032 |
| GEEMDTAEIARQVKEQLIKHNIGQRIFGHYVLGLSQGSVSEILARPKQWNKLTVRGKEPFHKMKQFLSDEQNILALRSIQGR [P48Q] | -0.247 ± 0.038 |
| GEEMDTAEIARQVKEQLIKHNIGQRIFGHYVLGLSQGSVSEILARPKSWNKLTVRGKEPFHKMKQFLSDEQNILALRSIQGR [P48S] | -0.168 ± 0.036 |

From the Human Domainome abundance scans (Beltran et al. 2025)
